The record followed here is US20100022402A1, “Methods and Compositions for the In Vitro High-Throughput Detection of Protein/Protein Interactions” (priority 2004, published 2010).

Test [1] addresses DcDL1 lambda phage displaying gpD-c-myc fusion protein (bacteriophage lambda) (UniProt P03712). Put plainly: bio-panning in 9E10-coated wells, reference DL1 phage.
The target is the same in test [2]. Put plainly: bio-panning of DcDL1 SCO and DCO phage in 9E10-coated wells.
For test [3], the target named is Lambda phage displaying SS1 scFv (DcSS1DL1), gpD-scFv-c-myc fusion protein (bacteriophage lambda) (UniProt P03712). Briefly: phage ELISA on anti-c-myc-coated plates, reference DcDL1. For orientation: An ELISA detects its analyte on a solid surface through an enzyme-linked reagent.
In test [4] the target is λD-Ubiquitin display phage (gpD fused to Ubiquitin) (bacteriophage lambda) (UniProt P03712). Put plainly: apparent KD from titration of λD-Cue:λD-Ubiquitin co-infection by free protein.
In test [5] the target is λD-CUE display phage (gpD fused to the CUE domain of Vps9p) (bacteriophage lambda) (UniProt P03712). Put plainly: competition: free protein titrates λD-CUE:λD-Ubiquitin co-infection (MOI 0.04), loss of double resistant multilysogens.
The target is the same in test [6]. Put plainly: apparent KD from titration of λD-Cue:λD-Ubiquitin co-infection by free protein.
Test [7] concerns the target λD-Ubiquitin display phage (gpD fused to Ubiquitin) (bacteriophage lambda) (UniProt P03712). Put plainly: cell-based or functional assay.

free wild type CUE protein (wtCUE, 50 amino acids), sequence (P54787 402-451 limits assumed): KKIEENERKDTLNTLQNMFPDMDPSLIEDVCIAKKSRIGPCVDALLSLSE

On to Anti-c-myc mAb, 9E10 (antibody), for which the fold recovery over DL1 phage in test [1] was greater than 200 fold. Moreover, the recovery of phages (percent of phages added) in test [2] amounted to 2%. Also, the fold less binding than DcDL1 in test [3] is 30 times less.
For the substance “free wild type CUE protein (wtCUE, 50 amino acids) (from UniProt P54787 402-451)”, in test [4], the Kd was 2 nM.
The IC50 is the concentration needed to halve the response being measured. Higher therefore signals lower potency. Regarding “free wild type Ubiquitin protein (wtUbiquitin)”, the 50% inhibitory concentration (IC50) in test [5] was 3 nM. The Kd in test [6] worked out at 20 nM.
In test [7], “λD-CUE display phage (gpD fused to the CUE domain of Vps9p) (from UniProt P03712 1-110; P54787 402-451)” returned a Cml^r/Kan^r double resistant lysogens at an MOI of 0.008 (8×10^5 phages infecting 1×10^8 cells) of 150 lysogens, an MOI at which double resistant multilysogens begin to contribute to the stable lysogen population of 0.0001 MOI, an MOI at which formation of double resistant multilysogens begins of 0.03 MOI and a maximum saturation point of double resistant multilysogens (% of the available cells) of 25.
